Measured values as given in patent US20240392003A1 (NUMAB THERAPEUTICS, published 2024).
Positions count from the first letter of the chain named. Read-outs that look alike come from different tables or passages of the source.

B1: PRO2589 (bispecific antibody)
chain 1: DVQMTQSPSSLSASVGDRVTITCRASENIYSGLAWYQQKPGKPPKLLIYRASTLASGVSSRFSGSGSGTDFTLTISSLQPEDFATYYCQGGYYSSSSTYIAFGTGTKVTVLGGGGGSGGGGSGGGGSGGGGSQSQVVESGGGLVQPGGSLRLSCAVSGFDLSSYAVSWVRQAPGKGLEWIGIIYPRANTYYASWAKGRFTISKDNSKNTVYLQMNSLRAEDTAVYFCARDRYDSGAYLYTTYFNLWGQGTLVTVSSGGGGSGGGGSAFELTQSPSSLSASVGDRVTITCQASESINSRLAWYQQKPGQPPKLLIYDASDLTSGVPSRFSGSGSGTDFTLTISSLQPEDFATYYCQGYGGSSTTTFGCGTKLTVLGGGSGGSDIQMTQSPSSLSASVGDRVTITCQSSQSVFSNNYLAWFQQKPGQSPKRLIYSASTLASGVPSRFSGSGSGTDFTLTISSLQPEDFATYYCLGSYACSSADCYVFGTGTKVTVLG
chain 2: DVQMTQSPSSLSASVGDRVTITCRASENIYSGLAWYQQKPGKPPKLLIYRASTLASGVSSRFSGSGSGTDFTLTISSLQPEDFATYYCQGGYYSSSSTYIAFGTGTKVTVLGGGGGSGGGGSGGGGSGGGGSQSQVVESGGGLVQPGGSLRLSCAVSGFDLSSYAVSWVRQAPGKGLEWIGIIYPRANTYYASWAKGRFTISKDNSKNTVYLQMNSLRAEDTAVYFCARDRYDSGAYLYTTYFNLWGQGTLVTVSSGGGGSGGGGSEVQLVESGGGLVQPGGSLRLSCAASGFSLSSYDMSWVRQAPGKGLAWIGASYASGPTYYASWAKGRFTISRDNSKNTVYLQMNSLRAEDTATYFCARGGWTGTSHSNIWGQGTLVTVSSGGGSGGGSGGGSGEVQLVESGGGLVQPGGSLRLSCAASGFSLSSYAMNWVRQAPGKCLEWIGHINAGDIAYYATWAKGRFTISRDNSKNTVYLQMNSLRAEDTAVYFCARGAGGFSTGPFKLWGQGTLVTVSS
notes: heterodimeric MATCH4, bivalent for ROR1, monovalent for CD3 and hSA; also called MATCH4 with 55-38-D07-sc02 / 19-04-A10-sc06 / 28-21-D09-sc04 / 55-38-D07-sc02
B2: PRO2590 (bispecific antibody)
chain 1: B1 chain 1 with T104C, G176C
chain 2: B1 chain 2 with T104C, G176C
notes: heterodimeric MATCH4, bivalent for ROR1, monovalent for CD3 and hSA; also called MATCH4 with 55-38-D07-sc06 / 19-04-A10-sc06 / 28-21-D09-sc04 / 55-38-D07-sc06
B3: PRO2591 (bispecific antibody)
chain 1: AQQLTQSPSSLSASVGDRVTITCQASQNVWNNNYLSWFQQKPGKPPKLLIVTASTLASGVSSRFSGSGSGTDFTLTISSLQPEDFATYYCAGGFSGEIRAFGTGTKVTVLGGGGGSGGGGSGGGGSGGGGSQSQLVESGGGLVQPGGSLRLSCAVSGIDLSRNAMSWVRQAPGKGLEWIGIILTSGSTYYASWAKGRFTISKTSTTLDLQMNSLRAEDTAVYFCVRGIASSSLKSFWGQGTLVTVSSGGGGSGGGGSAFELTQSPSSLSASVGDRVTITCQASESINSRLAWYQQKPGQPPKLLIYDASDLTSGVPSRFSGSGSGTDFTLTISSLQPEDFATYYCQGYGGSSTTTFGCGTKLTVLGGGSGGSDIQMTQSPSSLSASVGDRVTITCQSSQSVFSNNYLAWFQQKPGQSPKRLIYSASTLASGVPSRFSGSGSGTDFTLTISSLQPEDFATYYCLGSYACSSADCYVFGTGTKVTVLG
chain 2: AQQLTQSPSSLSASVGDRVTITCQASQNVWNNNYLSWFQQKPGKPPKLLIVTASTLASGVSSRFSGSGSGTDFTLTISSLQPEDFATYYCAGGFSGEIRAFGTGTKVTVLGGGGGSGGGGSGGGGSGGGGSQSQLVESGGGLVQPGGSLRLSCAVSGIDLSRNAMSWVRQAPGKGLEWIGIILTSGSTYYASWAKGRFTISKTSTTLDLQMNSLRAEDTAVYFCVRGIASSSLKSFWGQGTLVTVSSGGGGSGGGGSEVQLVESGGGLVQPGGSLRLSCAASGFSLSSYDMSWVRQAPGKGLAWIGASYASGPTYYASWAKGRFTISRDNSKNTVYLQMNSLRAEDTATYFCARGGWTGTSHSNIWGQGTLVTVSSGGGSGGGSGGGSGEVQLVESGGGLVQPGGSLRLSCAASGFSLSSYAMNWVRQAPGKCLEWIGHINAGDIAYYATWAKGRFTISRDNSKNTVYLQMNSLRAEDTAVYFCARGAGGFSTGPFKLWGQGTLVTVSS
notes: heterodimeric MATCH4, bivalent for ROR1, monovalent for CD3 and hSA; also called MATCH4 with 55-39-G02-sc03 / 19-04-A10-sc06 / 28-21-D09-sc04 / 55-39-G02-sc03

Legend:
[1] = target: T1, human ROR1 expressed on cells (human, UniProt Q01973 30-937); test: cell-based or functional assay
[2] = target: T1, human ROR1 expressed on cells; test: cell-based or functional assay; remark: listed apart in the source
[3] = target: T1, human ROR1 expressed on cells; test: flow cytometry, JIMT-1 cells (ROR1-positive)
[4] = target: T1, human ROR1 expressed on cells; test: flow cytometry, MDA-MB-231 cells, 1 mg/ml hSA
[5] = target: T2, human ROR1 (Peprotech 160-054) (human, UniProt Q01973 30-406); test: SPR; MATCH4 captured, hROR1 analyte (Affinity)
T2 construct: Bought, used as analyte; also called hROR1; recombinant human ROR1 protein
Protocol: Binding affinity without avidity was determined by using a proprietary anti-framework rabbit IgG (rlgG21-57-20-B11) immobilized to a carboxymethylated dextran surface (CM5 sensorchip; Biacore, Cytiva) to capture the MATCH4 molecules on the surface. A titration series of human ROR1 (Peprotech 160-054) molecule was injected as analyte. After each capture-analyte injection cycle, every flow channel on the sensor chip was regenerated (3 M MgCl₂), and a MATCH4 molecule was captured again followed by a different concentration of human ROR1. The binding kinetics to human ROR1 were measured using a multi-cycle kinetic assay, with ten analyte concentrations ranging from 0.088 to 90 nM, 1:2 diluted in running buffer (HEPES buffered saline, 0.05% Tween-20, pH 7.5; Bioconcept).
For both assays, the apparent dissociation (kd) and association (kₐ) rate constants and the apparent dissociation equilibrium constant (KD) were calculated with the Biacore analysis software (Biacore Evaluation software Version 3.2, Cytiva) using a one-to-one Langmuir binding model and quality of the fits was monitored based on Chi2 and U-value, which are measures for the quality of the curve fitting. The binding level was calculated as the maximum stability binding achieved normalized to the theoretical Rmax.

[6] = target: T3, recombinant human CD3 epsilon extra-cellular domain protein (His-Tag, SinoBiological) (human, UniProt P07766 23-126); test: SPR; hCD3ε immobilized, two-state fit (Ka1)
T3 construct: extracellular domain; Bought; also called hCD3ε; human CD3ε; not shown: His tag

[7] = target: T1, human ROR1 expressed on cells; test: cell-based or functional assay; remark: listed apart in the source
[8] = target: T1, human ROR1 expressed on cells; test: flow cytometry, MDA-MB-231 cells, 1 mg/ml hSA; remark: listed apart in the source
Protocol: After incubation at 4° C. for 1 h in presence of 1 mg/ml of human serum albumin (hSA), plates were washed and incubated with specific detection antibodies.
The binding of MATCH4 molecules to plasma membrane-based human ROR1 was assessed by flow cytometry. The calculated EC₅₀, rel.

[9] = target: T3, recombinant human CD3 epsilon …; test: SPR; hCD3ε immobilized, two-state fit
Protocol: Binding kinetics (including affinity) of the four MATCH4 molecules to recombinant human CD3 epsilon extra-cellular domain protein (hCD3ε; His-Tag, SinoBiological) were determined by SPR analysis on a T200 device (Biacore, Cytiva). Recombinant hCD3ε molecules were covalently immobilized to a carboxymethylated dextran surface (CM5 sensorchip; Biacore, Cytiva) and a titration series of each MATCH4 molecule was injected as analyte. After each analyte injection-cycle, every flow channel on the sensor chip was regenerated (Glycine, pH 2.0 and 3 M MgCl₂), and a new concentration of MATCH4 molecule was injected. […] The apparent dissociation (kd1) and association (kₐ₁) rate constants, the second reaction constants (kₐ₂ and kd2) and the apparent dissociation equilibrium constant (KD) were calculated with the Biacore analysis software (Biacore Evaluation software Version 3.2, Cytiva) using a two-state binding model, and the quality of the fits was monitored based on relative Chi2. The binding level was calculated as the maximum stability binding achieved normalized to the theoretical Rmax.

[10] = target: T4, recombinant human ROR1 protein (Fc-Tag, Acro Biosystems RO1-H5250) (human, UniProt Q01973 30-406); test: SPR; hROR1-Fc immobilized (Avidity)
T4 construct: Bought; also called hROR1; recombinant human ROR1 ECD; not shown: Fc tag

[11] = target: T3, recombinant human CD3 epsilon …; test: SPR; hCD3ε immobilized, two-state fit (kd1)
[12] = target: T1, human ROR1 expressed on cells; test: flow cytometry, JIMT-1 cells (ROR1-positive); remark: listed apart in the source

Binder | Avg. % max. CD8 T cell act. (JIMT-1) [1] | Avg. % max. CD8 T cell act. (MDA-MB-231) [1] | Avg. % max. CD8 T cell act. (SKOV3) [1] | Avg. EC50 (nM) CD8 T cell act. (JIMT-1) [1] | Avg. EC50 (nM) CD8 T cell act. (MDA-MB-231) [1] | Avg. EC50 (nM) CD8 T cell act. (SKOV3) [1] | Avg. % max. lysis (JIMT-1) [2] | Avg. % max. lysis (MDA-MB-231) [2] | Avg. % max. lysis (SKOV3) [2] | Avg. EC50 (nM) CD8 T cell act. (MDA-MB-231) [2] | Avg. EC50 (nM) CD8 T cell act. (SKOV3) [2] | Avg. EC50 (nM) Cytotoxicity (JIMT-1) [2] | Avg. EC50 (nM) Cytotoxicity (MDA-MB-231) [2] | Avg. EC50 (nM) Cytotoxicity (SKOV3) [2] | Kd [5] | koff [5] | kon [5] | kon [6] | Avg. % max. CD4 T cell act. (JIMT-1) [7] | Avg. % max. CD4 T cell act. (MDA-MB-231) [7] | further results
B1 | 23.8% | 68.5% | 66.7% | 0.08 nM | 0.012 nM | 0.032 nM | 41% | 56.9% | 54.6% | 0.012 nM | 0.031 nM | 0.1 nM | 0.015 nM | 0.043 nM | 1.2 nM | 0.00011 s⁻¹ | 94000 M⁻¹ s⁻¹ | 440000 M⁻¹ s⁻¹ | 36.7% | 79% | EC50 (read off the curve) [3]: 1 to 2 nM; fold better rel. EC50 than scMATCH3 PRO2507 [4]: ~10 fold; Avg. % max. CD4 T cell act. (SKOV3) [7]: 80.3%; Avg. EC50 (nM) CD4 T cell act. (JIMT-1) [7]: 0.09 nM; Avg. EC50 (nM) CD4 T cell act. (MDA-MB-231) [7]: 0.006 nM; Avg. EC50 (nM) CD4 T cell act. (SKOV3) [7]: 0.02 nM; EC50 [8]: 1.55 nM; Rel. maximum binding (MFIMATCH4/MFIPRO2213) [8]: 2.67; rel. EC50 (EC50, PRO2213/EC50, MATCH4) [8]: 0.45; Ka2 [9]: 0.0063 s⁻¹; Kd [9]: 5.9 nM; Kd2 [9]: 0.0042 s⁻¹; Kd [10]: 0.093 nM; koff [10]: 7.02e-05 s⁻¹; kon [10]: 755000 M⁻¹ s⁻¹; koff [11]: 0.0065 s⁻¹
B2 | 22.5% | 68.8% | 63.7% | 0.09 nM | 0.013 nM | 0.034 nM | 38.6% | 52.2% | 51.8% | 0.013 nM | 0.034 nM | 0.13 nM | 0.016 nM | 0.049 nM | 2.9 nM | 0.00017 s⁻¹ | 59000 M⁻¹ s⁻¹ | 450000 M⁻¹ s⁻¹ | 35.3% | 79.3% | EC50 (read off the curve) [3]: 1 to 2 nM; Avg. % max. CD4 T cell act. (SKOV3) [7]: 78.3%; Avg. EC50 (nM) CD4 T cell act. (JIMT-1) [7]: 0.11 nM; Avg. EC50 (nM) CD4 T cell act. (MDA-MB-231) [7]: 0.007 nM; Avg. EC50 (nM) CD4 T cell act. (SKOV3) [7]: 0.02 nM; EC50 [8]: 1.23 nM; Rel. maximum binding (MFIMATCH4/MFIPRO2213) [8]: 2.76; rel. EC50 (EC50, PRO2213/EC50, MATCH4) [8]: 0.56; Ka2 [9]: 0.0055 s⁻¹; Kd [9]: 5.7 nM; Kd2 [9]: 0.0043 s⁻¹; Kd [10]: 0.136 nM; koff [10]: 6.15e-05 s⁻¹; kon [10]: 453000 M⁻¹ s⁻¹; koff [11]: 0.0058 s⁻¹
B3 | 20.3% | 67.5% | 62.7% | 4.6 nM | 0.01 nM | 0.68 nM | 34.5% | 47.2% | 58.7% | 0.01 nM | 0.68 nM | 2.4 nM | 0.011 nM | 3.5 nM | 3.2 nM | 0.00034 s⁻¹ | 110000 M⁻¹ s⁻¹ | 420000 M⁻¹ s⁻¹ | 30.5% | 80.3% | EC50 (read off the curve) [12]: ~0.5 nM; Avg. % max. CD4 T cell act. (SKOV3) [7]: 78.7%; Avg. EC50 (nM) CD4 T cell act. (JIMT-1) [7]: 3.9 nM; Avg. EC50 (nM) CD4 T cell act. (MDA-MB-231) [7]: 0.005 nM; Avg. EC50 (nM) CD4 T cell act. (SKOV3) [7]: 0.38 nM; EC50 [8]: 0.28 nM; Rel. maximum binding (MFIMATCH4/MFIPRO2213) [8]: 2.21; rel. EC50 (EC50, PRO2213/EC50, MATCH4) [8]: 2.45; Ka2 [9]: 0.0027 s⁻¹; Kd [9]: 4.7 nM; Kd2 [9]: 0.0024 s⁻¹; Kd [10]: 0.0227 nM; koff [10]: 4.1e-05 s⁻¹; kon [10]: 1.81e+06 M⁻¹ s⁻¹; koff [11]: 0.00423 s⁻¹
